Where two headings read alike, the source gives them in different places.
Experiments:
[1] = target: T1, Recombinant human insulin receptor (B form) ECD (R&D Systems) (human, UniProt P06213 28-956, limits assumed); assay: SPR (Biacore 2000), INSR-ECD immobilised, purified Fab injected, 1:1 fit
T1 construct: extracellular domain; also called INSR-ECD; h-INSR

[2] = target: T2, human insulin receptor (INSR) on CHOK1 cells (human, UniProt P06213 28-1382); assay: cell-based or functional assay
[3] = target: T2, human insulin receptor (INSR) on CHOK1 …; assay: cell-based or functional assay; remark: listed apart in the source
[4] = target: T3, rat insulin receptor (INSR) on CHOK1 cells (rat, UniProt P15127 27-1383); assay: cell-based or functional assay
[5] = target: T4, minipig insulin receptor (INSR) on CHOK1 cells (minipig, UniProt F1SCL0 28-758; F1SCL0 763-1382); assay: cell-based or functional assay
[6] = target: T5, cynomolgus insulin receptor (INSR) on CHOK1 cells (cyno, UniProt A0A7N9D6H3 48-1390); assay: cell-based or functional assay
[7] = target: T5, cynomolgus insulin receptor (INSR) on …; assay: binding to CHO cells expressing cyno INSR; 2nd column headed CHO Cyno INSR (same numbers as the 1st); quantity and unit not printed [cont'd]
[8] = target: T3, rat insulin receptor (INSR) on CHOK1 …; assay: binding to CHO cells expressing rat INSR; 1st column headed CHO Rat INSR; quantity and unit not printed [cont'd]
[9] = target: T2, human insulin receptor (INSR) on CHOK1 …; assay: binding to CHO cells expressing human INSR; 1st column headed CHO Human INSR; quantity and unit not printed [cont'd]
[10] = target: T2, human insulin receptor (INSR) on CHOK1 …; assay: flow cytometry on CHOK1 cells expressing the INSR ortholog; Fab, anti-human kappa FITC detection
[11] = target: T3, rat insulin receptor (INSR) on CHOK1 …; assay: as above
[12] = target: T4, minipig insulin receptor (INSR) on …; assay: as above
[13] = target: T5, cynomolgus insulin receptor (INSR) on …; assay: as above
[14] = target: T6, solubilized human INSR (B isoform) from CHO-hINSR-B cells, without insulin (human, UniProt P06213 28-1382); assay: SPR (ProteOn XPR36), solubilized INSR-B captured by CT-3 mAb, Fab injected, -insulin
T6 construct: mature; Detergent-solubilized full-length receptor in cell lysate, captured on the SPR chip by its carboxy-terminal part; also called solubilized INSR

[15] = target: T2, human insulin receptor (INSR) on CHOK1 …; assay: cell-based or functional assay; remark: listed apart in the source
[16] = target: T2, human insulin receptor (INSR) on CHOK1 …; assay: flow cytometry on CHO cells expressing human INSR
[17] = target: T3, rat insulin receptor (INSR) on CHOK1 …; assay: binding to CHO cells expressing rat INSR; 2nd column headed CHO Rat INSR (the 1st column's numbers with more digits); quantity and unit not printed [cont'd]
[18] = target: T2, human insulin receptor (INSR) on CHOK1 …; assay: binding to CHO cells expressing human INSR; 2nd column headed CHO Human INSR; quantity and unit not printed [cont'd]
[19] = target: T5, cynomolgus insulin receptor (INSR) on …; assay: binding to CHO cells expressing cyno INSR; 1st column headed CHO Cyno INSR; quantity and unit not printed [cont'd]
[20] = target: T6, solubilized human INSR (B isoform) from …; assay: SPR (ProteOn XPR36), solubilized INSR captured by CT-3 mAb, antibody injected, no insulin
[21] = target: T2, human insulin receptor (INSR) on CHOK1 …; assay: flow cytometry on CHOK1 cells expressing the INSR ortholog; IgG, anti-human IgG APC detection
[22] = target: T3, rat insulin receptor (INSR) on CHOK1 …; assay: as above
[23] = target: T4, minipig insulin receptor (INSR) on …; assay: as above
[24] = target: T5, cynomolgus insulin receptor (INSR) on …; assay: as above
[25] = target: T2, human insulin receptor (INSR) on CHOK1 …; assay: flow cytometry on CHO cells expressing human INSR; remark: listed apart in the source
[26] = target: T1, Recombinant human insulin receptor (B …); assay: SPR (Biacore 2000), INSR-ECD immobilised, purified Fab injected, 1:1 fit [cont'd]
[27] = target: T1, Recombinant human insulin receptor (B …); assay: SPR (Biacore 2000), INSR-ECD immobilised; relative to 247.2.018 Fab

Binder | Kd [1] [nM] | Potency EC50 value [nM] [cont'd] [2] [nM] | EC50 (nM), pAKT signaling assay [3] [nM] | EC50 (nM), pAKT signaling assay [4] [nM] | EC50 (nM), pAKT signaling assay [5] [nM] | EC50 (nM), pAKT signaling assay [6] [nM] | CHO Cyno INSR [7] | CHO Rat INSR [8] | CHO Human INSR [9] | CHO Rat INSR [17] | CHO Human INSR [18] | CHO Cyno INSR [19] | other results
XPA.15.247.2.018 Fab (Fab, V domains shown, Monomeric Fab; also called XPA.247.2.018) VH: EVQLVETGGGVVQPGRSLRLSCAASGFTFSSYAMHWVRQAPGKGLEWVAVISYSGSNKYYADSVKGRFTISRDNSKNTLYLQMNSLRAEDTAVYYCARHEWGFGFDYWGQGTTVTVSS VL: DVVMTQSPLSLPVTLGQPASISCRSSQSLVYGDGNTYLNWFQQRPGQSPRRLIYKVSNRDSGVPDRFSGSGSGTEFTLKISRVEAEDVGVYFCMQGTYWPGTFGGGTKLEIKR | 9.7 | 1.31 | 3.3 | 4.2 | 2.5 | 2.8 | 2.62 | 1.28 | 2.2 | 1.28 | 1.63 | 2.62 | EC50 [10]: 1.6 nM; EC50 [11]: 1.9 nM; EC50 [12]: 2 nM; EC50 [13]: 21.9 nM; Kd [14]: 6.9 nM; EC50, pAKT assay at the EC80 concentration of insulin [15]: 7.7 nM; EC50 (read off the curve) [16]: ~0.2 µg/mL
XPA.15.247.2.018 IgG (antibody, V domains shown, Tested as IgG; also called XPA.15.247.2.018 antibody) VH: EVQLVETGGGVVQPGRSLRLSCAASGFTFSSYAMHWVRQAPGKGLEWVAVISYSGSNKYYADSVKGRFTISRDNSKNTLYLQMNSLRAEDTAVYYCARHEWGFGFDYWGQGTTVTVSS VL: DVVMTQSPLSLPVTLGQPASISCRSSQSLVYGDGNTYLNWFQQRPGQSPRRLIYKVSNRDSGVPDRFSGSGSGTEFTLKISRVEAEDVGVYFCMQGTYWPGTFGGGTKLEIKR |  |  | 0.3 | 0.4 | 0.3 | 0.2 |  |  |  |  |  |  | Kd [20]: 6.6 nM; EC50 [21]: 0.3 nM; EC50 [22]: 0.4 nM; EC50 [23]: 0.5 nM; EC50 [24]: 1.4 nM; EC50 (read off the curve) [25]: ~0.8 µg/mL
RHF.15.05896.075 (Fab, V domains shown, Untagged Fab) VH: EVQLVETGGGVVQPGRSLRLSCAASGFKFSSYAMHWVRQAPGKGLEWVAVISYSGSNKYYADSVKGRFTISRDNSKNTLYLQMNSLRAEDTAVYYCARHEWGFGYDYWGQGTTVTVSS VL: DVVMTQSPLSLPVTLGQPASISCRSSQSLVYGDGNTYLNWFQQRPGQSPRRLIYKVSNRDSGVPDRFSGSGSGTEFTLKISRVEAEDVGVYFCMQGTYWPGTFGGGTKLEIKR | 1.4 | 1.16 |  |  |  |  | 0.728 | 0.621 | 1.06 | 0.621 | 0.791 | 0.728 | koff [26]: 0.00045 s⁻¹; kon [26]: 320000 M⁻¹ s⁻¹; Fold KD Improvement [27]: 7 fold

From patent US20180251562A1 (XOMA US, published 2018)
